# Results reported in patent publication US20250347697A1, “Accurate Method for Generating a Phase Diagram of a Polymer” (MAX-PLANCK-GESELLSCHAFT ZUR FÖRDERUNG DER WISSENSCHAFTEN …, priority 2022, published 2025).
# T1: FUS (Homo sapiens, UniProt P35637)
# T1 construct: made in house; host or cells: SF9-ESF insect cells (baculovirus) for the unlabelled FUS
# T1 sequence (P35637 1-526): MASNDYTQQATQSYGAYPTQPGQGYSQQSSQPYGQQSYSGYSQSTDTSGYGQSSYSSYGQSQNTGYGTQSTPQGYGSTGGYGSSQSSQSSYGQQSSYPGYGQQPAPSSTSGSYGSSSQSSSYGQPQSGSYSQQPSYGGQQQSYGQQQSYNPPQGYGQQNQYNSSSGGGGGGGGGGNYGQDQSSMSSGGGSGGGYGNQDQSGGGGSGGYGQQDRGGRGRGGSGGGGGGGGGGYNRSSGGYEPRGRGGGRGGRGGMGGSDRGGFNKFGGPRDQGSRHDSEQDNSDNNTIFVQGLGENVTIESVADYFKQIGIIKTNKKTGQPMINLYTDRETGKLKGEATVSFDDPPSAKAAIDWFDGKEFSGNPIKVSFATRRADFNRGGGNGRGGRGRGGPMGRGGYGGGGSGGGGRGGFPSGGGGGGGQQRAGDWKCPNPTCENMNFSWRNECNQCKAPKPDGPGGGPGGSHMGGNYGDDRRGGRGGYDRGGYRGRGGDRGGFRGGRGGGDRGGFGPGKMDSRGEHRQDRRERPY
# Legend:
# Format in all cases: physicochemical
# [1] = molecular target: T1, FUS; assay: Effect of a small molecule drug on the phase diagram (binodal) of FUS, inPhase method; conditions: compared to untreated control (DMSO); temperature phase diagram, FIG. 9
# From the text: • 1. Measure the protein concentration of the stock solutions. The stock solutions can be unlabelled, a mix of labelled and unlabelled or fully labelled protein. Solutions containing only unlabelled protein will be detected using brightfield (or phase-contrast, DIC, etc.) while the mixes that contain labelled protein can be also detected with fluorescence means. • 2. Make a titration series of the protein solution. • 3. Trigger phase separation of the protein samples. Phase separation can be triggered for example by a change in salt, pH or temperature. • 4. Immediately after triggering phase separation, encapsulate in a water-in-oil system (e.g. PicoSurf oil (Sphere Fluidics, UK)). • 5. Centrifugation after encapsulation is optional but helps in the segmentation of the condensates. This is because the centrifugation coarsens the condensates. • 6. Load the titration series into chambers for microscopy imaging. […] Now the ratio condensate over emulsion droplet volume which is the volume fraction can be determined. In case of fluorescently labelled proteins the determination of the condensate volume can be complemented by fluorescence microscopy. • 8. Perform the image and segmentation analysis and fit the measured volume-fractions to a linear regression over the protein concentrations. • 9. […]
# [2] = Partition factor derived from inPhase phase diagrams (water-in-oil emulsions); conditions: range over the tested temperatures and salt (KCl) concentrations, FIG. 15a
# From the text: Partition factor and comparison to fluorescence-based quantification. The partition factor (PF) is often used in condensate research to characterise the up-concentration of protein in the condensed phase. It can be defined by the ratio of the condensed-over dilute-phase concentration (PF=ccon/cdil). In the condensate field it is common to determine the partition factor by comparing fluorescence intensity inside the condensate against the intensity in the dilute phase. In contrast, our method allows us to directly determine the partition factor by using the presented phase diagrams (FIG. 13 and FIG. 14).
# • 1. Measure the protein concentration of the stock solutions. The stock solutions can be unlabelled, a mix of labelled and unlabelled or fully labelled protein. Solutions containing only unlabelled protein will be detected using brightfield (or phase-contrast, DIC, etc.) while the mixes that contain labelled protein can be also detected with fluorescence means. • 2. […] Now the ratio condensate over emulsion droplet volume which is the volume fraction can be determined. In case of fluorescently labelled proteins the determination of the condensate volume can be complemented by fluorescence microscopy. • 8. Perform the image and segmentation analysis and fit the measured volume-fractions to a linear regression over the protein concentrations. • 9. […]
# [3] = molecular target: T2, FUS-GFP (Homo sapiens, UniProt P35637); assay: Effect of RNA on protein phase separation (poly(A) RNA : FUS-GFP at fixed molar ratio); conditions: titration of total protein concentration at constant poly(A) RNA to protein ratio, FIG. 16
# T2 construct: made in house; the listing says 'purified from BAC construct')
# Description: FUS-GFP containing samples were prepared as described in Example 1. Phase separation was triggered by simultaneously lowering the salt concentration of the sample and adding the Poly(A) RNA in an amount to maintain a fixed molar ratio of Poly(A):FUS-GFP. The volume fraction of the condensed phase was determined as described in Example 1 and cdil and ccon, were determined, wherein ccon represents an apparent concentration containing both Poly(A) (SEQ ID No: 3) and FUS-GFP concentration. The concentration of the single components of the sample can be resolved by the knowledge of the molar ratio of RNA to protein in the condensed phase (FIG. 16).
molecule,measurement,setting,value
NC(=O)CCCCC1CCSS1 (stereo not drawn) [Lipoamide],effect on the phase behavior of FUS (condensed phase branch of the binodal),[1],reduced amount of conformational changes at higher temperatures
"PGL-3: protein component of P granules in the germline of C. elegans; spiked with 5% PGL-3::GFP (protein, UniProt G5EBV6 1-693, looked up, spiked with 5% PGL-3::GFP, protein component of P granules in the germline of C. elegans; spiked with 5% PGL-3::GFP) Guanyl-specific ribonuclease …: MEANKRQIVEVDGIKSYFFPHLAHYLASNDELLVNNIAQANKLAAFVLGATDKRPSNEEIAEMILPNDSSAYVLAAGMDVCLILGDDFRPKFDSGAEKLSQLGQAHDLAPIIDDEKKISMLARKTKLKKSNDAKILQVLLKVLGAEEAEEKFVELSELSSALDLDFDVYVLAKLLGFASEELQEEIEIIRDNVTDAFEACKPLLKKLMIEGPKIDSVDPFTQLLLTPQEESIEKAVSHIVARFEEASAVEDDESLVLKSQLGYQLIFLVVRSLADGKRDASRTIQSLMPSSVRAEVFPGLQRSVFKSAVFLASHIIQVFLGSMKSFEDWAFVGLAEDLESTWRRRAIAELLKKFRISVLEQCFSQPIPLLPQSELNNETVIENVNNALQFALWITEFYGSESEKKSLNQLQFLSPKSKNLLVDSFKKFAQGLDSKDHVNRIIESLEKSSSSEPSATAKQTTTSNGPTTVSTAAQVVTVEKMPFSRQTIPCEGTDLANVLNSAKIIGESVTVAAHDVIPEKLNAEKNDNTPSTASPVQFSSDGWDSPTKSVALPPKISTLEEEQEEDTTITKVSPQPQERTGTAWGSGDATPVPLATPVNEYKVSGFGAAPVASGFGQFASSNGTSGRGSYGGGRGGDRGGRGAYGGDRGRGGSGDGSRGYRGGDRGGRGSYGEGSRGYQGGRAGFFGGSRGGS",partition factor (PF=ccon/cdil),[2],10^1-10^3
"poly(A) RNA: Poly(A) RNA (SEQ ID No: 3) added to FUS-GFP at a fixed molar ratio (nucleic acid, misc_feature 1..250 Poly(A) RNA) AAAAAAAAAAAAAAAAAAAAAAAAAAAAAAAAAAAAAAAAAAAAAAAAAAAAAAAAAAAAAAAAAAAAAAAAAAAAAAAAAAAAAAAAAAAAAAAAAAAAAAAAAAAAAAAAAAAAAAAAAAAAAAAAAAAAAAAAAAAAAAAAAAAAAAAAAAAAAAAAAAAAAAAAAAAAAAAAAAAAAAAAAAAAAAAAAAAAAAAAAAAAAAAAAAAAAAAAAAAAAAAAAAAAAAAAAAAAAAAAAAAAAAAAAA",effect of increasing the RNA to protein ratio on cdil,[3],reduces cdil
